Patent publication US8030043B2, “β-galactoside-α2,3-sialyltransferase, a gene encoding thereof, and a method for producing thereof” (Japan Tobacco Inc., priority 2005, dated 2011)

B1: ISH467-N2C0 third clone: JT-ISH-467 sialyltransferase lacking signal peptide region, nucleotides 73 to 1230 of SEQ ID NO: 1, no mutation (protein, listed as Photobacterium phosphoreum)
chain: MFVFCKKIFFLIFISLMILGGCNSDSKHNNSDGNITKNKTIEVYVDRATLPTIQQMTQIINENSNNKKLISWSRYPINDETLLESINGSFFKNRPELIKSLDSMILTNEIKKVIINGNTLWAVDVVNIIKSIEALGKKTEIELNFYDDGSAEYVRLYDFSRLPESEQEYKISLSKDNIQSSINGTQPFDNSIENIYGFSQLYPTTYHMLRADIFETNLPLTSLKRVISNNIKQMKWDYFTTFNSQQKNKFYNFTGFNPEKIKEQYKASPHENFIFIGTNSGTATAEQQIDILTEAKKPDSPIITNSIQGLDLFFKGHPSATYNQQIIDAHNMIEIYNKIPFEALIMTDALPDAVGGMGSSVFFSLPNTVENKFIFYKSDTDIENNALIQVMIELNIVNRNDVKLISDLQ
modifications: CDS (1)..(1230) /gene=“467-23ST” /product=“Beta-galactoside- alpha 2,3-sialyltransferase”
B2: ISH224-N1C0 first clone: JT-ISH-224 sialyltransferase lacking signal peptide region, nucleotides 73 to 1230 of SEQ ID NO: 28 (protein, listed as Photobacterium sp.)
chain: MLVFCKKMFFSVFISLMILGGCNSDSNHNNSDGNITKNKTIEVYVDRATLPTIQQMTQIINENSNNKKLISWSRYPINDEELLESINGSFFKNNSELIKSLDSMILTNDIKKVIINGNTLWAADVVNIIKSIEAFGKKTEIELNFYDDGSAEYVRLYDFSKLPESEQEYKISLSKDNILSSINGTQPFENVVENIYGFSQLYPTTYHMLRADIFETNLPLRSLKGVLSNNIKQMKWDYFKTFNSQQKDKFYNFTGFNPDEIMEQYKASPNKNFIFVGTNSGTATAEQQIDILTEAKNPNSPIITKSIQGFDLFFKGHPSATYNKQIIDAHNMIEIYNKIPFEALIMTDALPDAVGGMGSSVFFSLPNTVENKFIFYKSDTDIENNALIQVMIELNIVNRNDVKLISDLQ
modifications: CDS (1)..(1230) /gene=“224-23ST” /product=“Beta-galactoside-alpha-2,3-sialyltransferase”
B3: FAJ-N1C0 first clone: JT-FAJ-16 sialyltransferase lacking signal peptide region, nucleotides 67 to 1209 of SEQ ID NO: 30 (protein, listed as Vibrio sp.)
chain: MKNIITKRMLIILSSLFTIIGCNNDNSTTTNNNAIEIYVDRATLPTIQQMTKIVSQKTSNKKLISWSRYPITDKSLLKKINAEFFKEQFELTESLKNIILSENIDNLIIHGNTLWSIDVVDIIKEVNLLGKNIPIELHFYDDGSAEYVRIYEFSKLPESEQKYKTSLSKNNIKFSIDGTDSFKNTIENIYGFSQLYPTTYHMLRADIFDTTLKINPLRELLSNNIKQMKWDYFKDFNYKQKDIFYSLTNFNPKEIQEDFNKNSNKNFIFIGSNSATATAEEQINIISEAKKENSSIITNSISDYDLFFKGHPSATFNEQIINAHDMIEINNKIPFEALIMTGILPDAVGGMGSSVFFSIPKEVKNKFVFYKSGTDIENNSLIQVMLKLNLINRDNIKLISDI
modifications: CDS (1)..(1209) /gene=“FAJ16-23ST” /product=“Beta-galactoside- alpha 2,3-sialyltransferase”

Columns and labels:
[1] = Optimum pH for enzyme activity; assay type: biochemical; conditions: 25° C.; acetate, cacodylate, phosphate, TAPS, CHES, CAPS buffers pH 4.0-11.0
Protocol: Purified enzymes were prepared to examine the optimum pH and temperature for β-galactoside-α2,3-sialyltransferase produced by the strain JT-ISH-467 as well as recombinant β-galactoside-α2,3-sialyltransferases produced by the third clone of ISH467-N2C0, the first clone of ISH224-N1C0 and the first clone of FAJ-N1C0.
Acetate buffer (pH 4.0, pH 4.5 and pH 5.0), cacodylate buffer (pH 5.0, pH 5.5, pH 6.0, pH 6.5 and pH 7.0), phosphate buffer (pH 7.0, pH 7.5 and pH 8.0), TAPS buffer (pH 8.0, pH 8.5 and pH 9.0), CHES buffer (pH 9.0, pH 9.5 and pH 10.0) and CAPS buffer (pH 10.0, pH 10.5 and pH 11.0) were prepared and used for enzyme activity measurement at 25° C. at various pH values.
As a result, as shown in FIGS. 3-1 and 3-2, the enzyme activity was maximum at pH 5.0 for β-galactoside-α2,3-sialyltransferase produced by the strain JT-ISH-467, at pH 5.5 for the third clone of ISH467-N2C0, at pH 5.0 for the first clone of ISH224-N1C0, and at pH 5.5 for the first clone of FAJ-N1C0. […] It should be noted that enzyme activity at each pH was expressed as relative activity, assuming that the enzyme activity at pH where it reached a maximum was set to 100.

asialofetuin = assay: Sialic acid transfer to glycoprotein (asialofetuin), gel filtration and scintillation counting; assay type: biochemical; conditions: asialofetuin acceptor; CMP-14C-NeuAc 22.8 nmol (about 19,000 cpm); enzyme 10 mU; 25° C., 2 hours
Description: Cell homogenates prepared from E. coli cells introduced with the third clone of ISH467-N2C0, the first clone of ISH224-N1C0 and the first clone of FAJ-N1C0 were each purified by ion exchange chromatography and hydroxyapatite chromatography to give an electrophoretically single band. The thus purified β-galactoside-α2,3-sialyltransferases were used in the following experiment in order to examine the presence or absence of sialyltransferase activity toward glycoproteins.
As a glycosyl acceptor substrate, asialofetuin was used. Asialofetuin (2 mg) was dissolved in 1 ml of 20 mM Bis-tris buffer (pH 6.0) and used as a glycosyl acceptor substrate solution. As a glycosyl donor substrate, CMP-^14C-NeuAc-containing CMP-NeuAc was used. The glycosyl acceptor substrate solution (40 μl), the glycosyl donor substrate (5 μl, 22.8 nmol (about 19,000 cpm)) and any of the enzyme solutions (5 μl, 10 mU each) were mixed and incubated at 25° C. for 2 hours to cause sialic acid transfer reaction. After completion of the reaction, the reaction solution was gel-filtered by being applied to a Sephadex G-50 Superfine (0.8×18.0 cm) equilibrated with 0.1 M sodium chloride. A glycoprotein-containing eluate fraction (2-4 ml fraction) from gel filtration was collected and measured for its radioactivity using a liquid scintillation counter to quantify sialic acid transferred to the glycosyl acceptor substrate.

Molecule	pH at which the enzyme activity was maximum (optimum pH) [1]	Radioactivity (cpm) (asialofetuin)
B1	5.5	1729 cpm
B2	5.0	3301 cpm
B3	5.5	2865 cpm
